According to PMC9482650, “Quantitative fragmentomics allow affinity mapping of interactomes” (Nature Communications, 2022):

B1: DFNB31, Q9P202 (peptide)
chain: FLVTEFNVML
B2: IGSF5, Q9NSI5 (peptide)
chain: PEKVSNTTVV
B3: KCNB1, Q14721 (peptide)
chain: AHGSTRDQSI
B4: CSPG4, Q6UVK1 (peptide)
chain: PALKNGQYWV

Tests used:
Assay in all cases: holdup assay
Design in all cases: key: below the threshold = too weak to quantify, mostly under pKd 3.1 to 4
Details in all cases: plain residues with an end cap or a label only (N-terminal biotin on a linker: ado-ado)
CARD11, Q9BXL7 = target: T1, CARD11, Q9BXL7
T1 sequence (Q9BXL7 662-765, limits assumed, looked up): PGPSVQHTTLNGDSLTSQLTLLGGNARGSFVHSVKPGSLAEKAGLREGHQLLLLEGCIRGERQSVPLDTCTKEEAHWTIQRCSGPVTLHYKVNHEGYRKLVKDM

DFNB31_1, Q9P202 = target: T2, DFNB31_1, Q9P202
T2 sequence (Q9P202 135-233, limits assumed, looked up): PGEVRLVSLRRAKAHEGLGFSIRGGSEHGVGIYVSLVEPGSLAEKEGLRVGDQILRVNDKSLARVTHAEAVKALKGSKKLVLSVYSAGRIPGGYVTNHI

DFNB31_2, Q9P202 = target: T3, DFNB31_2, Q9P202
T3 sequence (Q9P202 274-371, limits assumed, looked up): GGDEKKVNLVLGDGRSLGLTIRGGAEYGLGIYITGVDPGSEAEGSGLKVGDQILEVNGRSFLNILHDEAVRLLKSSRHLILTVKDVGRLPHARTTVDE

DLG4_1, P78352 = target: DLG4_1, P78352
Chain of DLG4_1, P78352 (P78352 62-152): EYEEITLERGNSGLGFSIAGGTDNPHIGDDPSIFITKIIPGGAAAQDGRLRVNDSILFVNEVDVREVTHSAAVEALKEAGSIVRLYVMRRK

GIPC2, Q8TF65 = target: GIPC2, Q8TF65
Chain of GIPC2, Q8TF65 (Q8TF65 112-203): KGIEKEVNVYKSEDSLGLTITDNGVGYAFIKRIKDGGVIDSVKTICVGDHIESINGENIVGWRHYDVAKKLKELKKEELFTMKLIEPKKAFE

GRASP, Q7Z6J2 = target: GRASP, Q7Z6J2
Chain of GRASP, Q7Z6J2 (Q7Z6J2 96-193): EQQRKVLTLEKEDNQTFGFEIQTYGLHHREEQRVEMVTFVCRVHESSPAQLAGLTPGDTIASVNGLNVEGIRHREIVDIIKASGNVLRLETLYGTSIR

GRID2IP_2, A4D2P6 = target: GRID2IP_2, A4D2P6
Chain of GRID2IP_2, A4D2P6 (A4D2P6 272-370): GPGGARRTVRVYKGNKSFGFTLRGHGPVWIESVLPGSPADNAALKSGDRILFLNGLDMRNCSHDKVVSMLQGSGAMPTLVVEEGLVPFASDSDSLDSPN

GRIP1_4, Q9Y3R0 = target: T4, GRIP1_4, Q9Y3R0
T4 sequence (Q9Y3R0 467-571, limits assumed, looked up): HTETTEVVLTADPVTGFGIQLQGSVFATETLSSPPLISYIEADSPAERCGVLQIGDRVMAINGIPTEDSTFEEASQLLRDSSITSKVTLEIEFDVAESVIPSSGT

IL16_1, Q14005 = target: IL16_1, Q14005
Chain of IL16_1, Q14005 (Q14005 210-306): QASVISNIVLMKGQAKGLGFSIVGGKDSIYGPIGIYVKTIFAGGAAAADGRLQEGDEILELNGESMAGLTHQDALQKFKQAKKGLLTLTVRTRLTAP

Inadl_9, Q8NI35 = target: Inadl_9, Q8NI35
Chain of Inadl_9, Q8NI35 (Q8NI35 1530-1615): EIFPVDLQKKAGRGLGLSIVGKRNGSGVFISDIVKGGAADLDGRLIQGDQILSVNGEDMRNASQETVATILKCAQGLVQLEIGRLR

LDB3, O75112 = target: LDB3, O75112
Chain of LDB3, O75112 (O75112 1-94): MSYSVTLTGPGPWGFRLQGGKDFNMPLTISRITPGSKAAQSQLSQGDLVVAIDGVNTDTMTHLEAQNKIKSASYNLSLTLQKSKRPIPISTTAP

LNX1_1, Q8TBB1 = target: LNX1_1, Q8TBB1
Chain of LNX1_1, Q8TBB1 (Q8TBB1 261-371): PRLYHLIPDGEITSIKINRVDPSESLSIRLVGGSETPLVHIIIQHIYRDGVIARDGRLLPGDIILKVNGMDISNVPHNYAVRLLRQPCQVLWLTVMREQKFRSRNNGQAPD

LNX2_2, Q8N448 = target: T5, LNX2_2, Q8N448
T5 sequence (Q8N448 334-432, limits assumed, looked up): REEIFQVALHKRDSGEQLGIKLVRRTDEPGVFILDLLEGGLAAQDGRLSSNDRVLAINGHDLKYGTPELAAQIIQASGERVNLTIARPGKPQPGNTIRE

MAGI1_1, Q96QZ7 = target: MAGI1_1, Q96QZ7
Chain of MAGI1_1, Q96QZ7 (Q96QZ7 1-106): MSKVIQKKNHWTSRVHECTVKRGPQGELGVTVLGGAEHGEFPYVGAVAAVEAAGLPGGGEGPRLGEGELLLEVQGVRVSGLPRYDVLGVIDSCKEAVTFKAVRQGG

MAGI2_6, Q86UL8 = target: MAGI2_6, Q86UL8
Chain of MAGI2_6, Q86UL8 (Q86UL8 1141-1229): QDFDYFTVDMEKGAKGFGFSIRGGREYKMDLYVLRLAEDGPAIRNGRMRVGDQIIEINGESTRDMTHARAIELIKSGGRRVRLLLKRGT

MPP2, Q14168 = target: T6, MPP2, Q14168
T6 sequence (Q14168 180-250, limits assumed, looked up): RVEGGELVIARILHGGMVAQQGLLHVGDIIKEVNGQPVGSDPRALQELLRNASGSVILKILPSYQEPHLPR

NHERF2_2, Q15599 = target: NHERF2_2, Q15599
Chain of NHERF2_2, Q15599 (Q15599 142-238): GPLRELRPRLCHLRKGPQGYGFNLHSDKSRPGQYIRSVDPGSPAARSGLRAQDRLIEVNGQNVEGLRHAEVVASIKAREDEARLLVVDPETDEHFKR

NHERF4_1, Q86UT5-2 = target: NHERF4_1, Q86UT5-2
Chain of NHERF4_1, Q86UT5-2 (Q86UT5 other isoform, or with tags, fused parts or gaps): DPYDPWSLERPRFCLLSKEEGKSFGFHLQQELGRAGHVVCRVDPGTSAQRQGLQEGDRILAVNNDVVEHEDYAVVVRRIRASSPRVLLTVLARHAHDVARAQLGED

PARD3B_1, Q8TEW8 = target: T7, PARD3B_1, Q8TEW8
T7 sequence (Q8TEW8 196-299, limits assumed, looked up): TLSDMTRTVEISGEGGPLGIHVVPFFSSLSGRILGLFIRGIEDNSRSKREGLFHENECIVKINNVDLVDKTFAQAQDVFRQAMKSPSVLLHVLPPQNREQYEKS

PDZD7_3, Q9H5P4 = target: T8, PDZD7_3, Q9H5P4
T8 sequence (Q9H5P4 857-944, limits assumed, looked up): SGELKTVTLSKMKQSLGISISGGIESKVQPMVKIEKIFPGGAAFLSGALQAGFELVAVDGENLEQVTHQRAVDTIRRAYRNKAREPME

PTPN13_1, Q12923 = target: T9, PTPN13_1, Q12923
T9 sequence (Q12923 1088-1188, limits assumed, looked up): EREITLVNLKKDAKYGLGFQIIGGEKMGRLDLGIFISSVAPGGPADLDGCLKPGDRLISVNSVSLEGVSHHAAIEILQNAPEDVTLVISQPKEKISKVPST

SCRIB_3, Q14160 = target: SCRIB_3, Q14160
Chain of SCRIB_3, Q14160 (Q14160 999-1103): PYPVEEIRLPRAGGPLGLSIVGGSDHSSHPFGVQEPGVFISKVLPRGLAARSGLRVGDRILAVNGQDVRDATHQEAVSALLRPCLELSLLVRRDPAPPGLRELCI

SHANK1, Q9Y566 = target: T10, SHANK1, Q9Y566
T10 sequence (Q9Y566 658-767, limits assumed, looked up): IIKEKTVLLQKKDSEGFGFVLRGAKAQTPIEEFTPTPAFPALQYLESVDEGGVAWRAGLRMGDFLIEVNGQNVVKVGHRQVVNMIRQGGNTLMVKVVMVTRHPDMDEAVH

SIPA1L2, Q9P2F8 = target: T11, SIPA1L2, Q9P2F8
T11 sequence (Q9P2F8 945-1036, limits assumed, looked up): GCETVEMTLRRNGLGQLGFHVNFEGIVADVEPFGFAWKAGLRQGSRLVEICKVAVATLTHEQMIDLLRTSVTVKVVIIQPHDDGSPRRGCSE

SNTG2, Q9NY99 = target: T12, SNTG2, Q9NY99
T12 sequence (Q9NY99 68-166, limits assumed, looked up): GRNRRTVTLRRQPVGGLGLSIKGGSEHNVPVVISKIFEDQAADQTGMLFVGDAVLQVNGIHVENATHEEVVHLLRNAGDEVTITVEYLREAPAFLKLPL

| Binder | pKd (CARD11, Q9BXL7) | pKd (DFNB31_1, Q9P202) | pKd (DFNB31_2, Q9P202) | pKd (DLG4_1, P78352) | pKd (GIPC2, Q8TF65) | pKd (GRASP, Q7Z6J2) | pKd (GRID2IP_2, A4D2P6) | pKd (GRIP1_4, Q9Y3R0) | pKd (IL16_1, Q14005) | pKd (Inadl_9, Q8NI35) | pKd (LDB3, O75112) | pKd (LNX1_1, Q8TBB1) | pKd (LNX2_2, Q8N448) | pKd (MAGI1_1, Q96QZ7) | pKd (MAGI2_6, Q86UL8) | pKd (MPP2, Q14168) | pKd (NHERF2_2, Q15599) | pKd (NHERF4_1, Q86UT5-2) | pKd (PARD3B_1, Q8TEW8) | pKd (PDZD7_3, Q9H5P4) | other results |
| --- | --- | --- | --- | --- | --- | --- | --- | --- | --- | --- | --- | --- | --- | --- | --- | --- | --- | --- | --- | --- | --- |
| B1 | below the threshold | below the threshold | below the threshold | below the threshold | below the threshold | 3.72 | below the threshold | below the threshold | below the threshold | below the threshold | 3.88 | below the threshold | below the threshold | below the threshold | 4.78 | below the threshold | 4.04 | 3.9 | 5.21 | 4.47 | pKd (PTPN13_1, Q12923): below the threshold; pKd (SCRIB_3, Q14160): 4.12; pKd (SHANK1, Q9Y566): 3.84; pKd (SIPA1L2, Q9P2F8): below the threshold; pKd (SNTG2, Q9NY99): below the threshold |
| B2 | below the threshold | below the threshold | below the threshold | 4.15 | below the threshold | 4.38 | below the threshold | below the threshold | below the threshold | below the threshold | below the threshold | 3.67 | 5.14 | below the threshold | below the threshold | below the threshold | below the threshold | below the threshold | below the threshold | 4.66 | pKd (PTPN13_1, Q12923): below the threshold; pKd (SCRIB_3, Q14160): below the threshold; pKd (SHANK1, Q9Y566): below the threshold; pKd (SIPA1L2, Q9P2F8): below the threshold; pKd (SNTG2, Q9NY99): 3.76 |
| B3 | below the threshold | below the threshold | below the threshold | below the threshold | below the threshold | below the threshold | below the threshold | below the threshold | below the threshold | below the threshold | below the threshold | below the threshold | below the threshold | below the threshold | below the threshold | below the threshold | below the threshold | 3.54 | below the threshold | 3.67 | pKd (PTPN13_1, Q12923): below the threshold; pKd (SCRIB_3, Q14160): below the threshold; pKd (SHANK1, Q9Y566): 3.78; pKd (SIPA1L2, Q9P2F8): 3.58; pKd (SNTG2, Q9NY99): below the threshold |
| B4 | below the threshold | below the threshold | below the threshold | below the threshold | below the threshold | below the threshold | 3.75 | below the threshold | 3.79 | 4.16 | below the threshold | below the threshold | 5.28 | below the threshold | 3.67 | below the threshold | below the threshold | 3.5 | 3.71 | below the threshold | pKd (PTPN13_1, Q12923): below the threshold; pKd (SCRIB_3, Q14160): 3.58; pKd (SHANK1, Q9Y566): below the threshold; pKd (SIPA1L2, Q9P2F8): below the threshold; pKd (SNTG2, Q9NY99): below the threshold |
